Measurements published in publication PMC11289882, “Site-directed allostery perturbation to probe the negative regulation of hypoxia inducible factor-1α” (RSC Chemical Biology, 2024).

Tests used:
[1] = target: CITED2 218-256 218-256 (Homo sapiens) (UniProt Q99967); experiment: ITC
[2] = target: CITED2ΔN 224-256 (Homo sapiens) (UniProt Q99967); experiment: ITC
[3] = target: Flu-HIF-1α 786-826 (Homo sapiens) (UniProt Q16665); experiment: anisotropy
[4] = target: CITED2 218-256 218-256 (Homo sapiens) (UniProt Q99967); experiment: fluorescence anisotropy competition
[5] = target: CITED2ΔN 224-256 (Homo sapiens) (UniProt Q99967); experiment: fluorescence anisotropy competition

Sequence of p300 TAZ1 330-420, Q09472 (Q09472 330-420): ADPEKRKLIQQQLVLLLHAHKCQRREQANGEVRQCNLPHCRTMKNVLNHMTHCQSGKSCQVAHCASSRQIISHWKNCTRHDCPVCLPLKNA
Sequence of CITED2 218-256 218-256 (Homo sapiens) (Q99967 218-256): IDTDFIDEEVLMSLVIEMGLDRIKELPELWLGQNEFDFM
Sequence of CITED2ΔN 224-256 (Homo sapiens) (Q99967 224-256, stated change not applied): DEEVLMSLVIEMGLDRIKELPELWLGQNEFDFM
Sequence of Flu-HIF-1α 786-826 (Homo sapiens) (Q16665 786-826): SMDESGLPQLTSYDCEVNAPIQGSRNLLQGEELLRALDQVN

**Q.** Which Kd [1] does the source give for p300 TAZ1 330-420, Q09472 here?
**A.** Its Kd is 10.6 nM.

**Q.** What about the Kd [2] of the same substance?
**A.** The Kd was 50.5 nM.

**Q.** What about the Kd [3] of the same substance?
**A.** The Kd was 64 nM.

**Q.** And the Kd [4]?
**A.** The Kd was 2 nM.

**Q.** And the Kd [5]?
**A.** The Kd was 86 nM.
